Columns and labels:
HeLa Kyoto [1] = experiment: melting temperature (median over replicates), in situ; higher = more thermally stable
HeLa Kyoto [2] = experiment: solubility in G1/S (NP-40 vs SDS abundance) (log2 ratio); higher = more soluble; conditions: cell cycle stage: G1/S
HeLa Kyoto [3] = experiment: solubility change mitosis vs G1/S (difference of NP-40 vs SDS log2 ratios) (log2 ratio difference); higher = more soluble in mitosis
HeLa Kyoto [4] = experiment: thermal stability score vs G1/S (z-score of summed log2 fold changes over temperatures); higher = more thermally stable than in G1/S
[5] = cell cycle stage: early G1 (4.5 h after nocodazole release)
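For melting temperature (median over replicates), in situ in this document: HeLa Kyoto cells synchronized by double thymidine or nocodazole block, proteins quantified by TMT10plex mass spectrometry, three independent biological replicates.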
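For solubility change mitosis vs G1/S (difference of NP-40 vs SDS log2 ratios) in this document: synchronized HeLa Kyoto cells (double thymidine block for G1/S, nocodazole release for mitosis), protein amounts in NP-40 versus SDS lysates quantified by mass spectrometry, three biological replicates.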
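For solubility in G1/S (NP-40 vs SDS abundance) in this document: HeLa Kyoto cells arrested at G1/S by double thymidine block, proteins quantified by TMT10plex mass spectrometry in mild NP-40 versus SDS extracts, three biological replicates.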
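For thermal stability score vs G1/S (z-score of summed log2 fold changes over temperatures) in this document: synchronized HeLa Kyoto cells, proteins quantified by TMT10plex mass spectrometry, three biological replicates, mitosis taken 0.5 h after nocodazole release, G1/S directly after double thymidine block.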

Row | Sequence | melting temperature (HeLa Kyoto [1]; cell cycle stage: G1/S) [°C] | melting temperature (HeLa Kyoto [1]; cell cycle stage: mitosis) [°C] | solubility in G1/S (log2) (HeLa Kyoto [2]) | solubility change mitosis (log2) (HeLa Kyoto [3]) | thermal stability score (HeLa Kyoto [4]; [5]) | thermal stability score (HeLa Kyoto [4]; cell cycle stage: mitosis)
1 | MAAFSEMGVMPEIAQAVEEMDWLLPTDIQAESIPLILGGGDVLMAAETGSGKTGAFSIPVIQIVYETLKDQQEGKKGKTTIKTGASVLNKWQMNPYDRGSAFAIGSDGLCCQSREVKEWHGCRATKGLMKGKHYYEVSCHDQGLCRVGWSTMQASLDLGTDKFGFGFGGTGKKSHNKQFDNYGEEFTMHDTIGCYLDIDKGHVKFSKNGKDLGLAFEIPPHMKNQALFPACVLKNAELKFNFGEEEFKFPPKDGFVALSKAPDGYIVKSQHSGNAQVTQTKFLPNAPKALIVEPSRELAEQTLNNIKQFKKYIDNPKLRELLIIGGVAARDQLSVLENGVDIVVGTPGRLDDLVSTGKLNLSQVRFLVLDEADGLLSQGYSDFINRMHNQIPQVTSDGKRLQVIVCSATLHSFDVKKLSEKIMHFPTWVDLKGEDSVPDTVHHVVVPVNPKTDRLWERLGKSHIRTDDVHAKDNTRPGANSPEMWSEAIKILKGEYAVRAIKEHKMDQAIIFCRTKIDCDNLEQYFIQQGGGPDKKGHQFSCVCLHGDRKPHERKQNLERFKKGDVRFLICTDVAARGIDIHGVPYVINVTLPDEKQNYVHRIGRVGRAERMGLAISLVATEKEKVWYHVCSSRGKGCYNTRLKEDGGCTIWYNEMQLLSEIEEHLNCTISQVEPDIKVPVDEFDGKVTYGQKRAAGGGSYKGHVDILAPTVQELAALEKEAQTSFLHLGYLPNQLFRTF [DDX1] | 50.7 | 50.9 | -0.286 | 0.00283 | 0.00991 | 0.413
2 | MAAGDGDVKLGTLGSGSESSNDGGSESPGDAGAAAEGGGWAAAALALLTGGGEMLLNVALVALVLLGAYRLWVRWGRRGLGAGAGAGEESPATSLPRMKKRDFSLEQLRQYDGSRNPRILLAVNGKVFDVTKGSKFYGPAGPYGIFAGRDASRGLATFCLDKDALRDEYDDLSDLNAVQMESVREWEMQFKEKYDYVGRLLKPGEEPSEYTDEEDTKDHNKQD [PGRMC2] | 52.3 | 53.9 | 0.236 | -0.00423 | -0.577 | 0.992
3 | MAAGGDHGSPDSYRSPLASRYASPEMCFVFSDRYKFRTWRQLWLWLAEAEQTLGLPITDEQIQEMKSNLENIDFKMAAEEEKRLRHDVMAHVHTFGHCCPKAAGIIHLGATSCYVGDNTDLIILRNALDLLLPKLARVISRLADFAKERASLPTLGFTHFQPAQLTTVGKRCCLWIQDLCMDLQNLKRVRDDLRFRGVKGTTGTQASFLQLFEGDDHKVEQLDKMVTEKAGFKRAFIITGQTYTRKVDIEVLSVLASLGASVHKICTDIRLLANLKEMEEPFEKQQIGSSAMPYKRNPMRSERCCSLARHLMTLVMDPLQTASVQWFERTLDDSANRRICLAEAFLTADTILNTLQNISEGLVVYPKVIERRIRQELPFMATENIIMAMVKAGGSRQDCHEKIRVLSQQAASVVKQEGGDNDLIERIQVDAYFSPIHSQLDHLLDPSSFTGRASQQVQRFLEEEVYPLLKPYESVMKVKAELCL [ADSL] | 57.2 | 57.8 | 0.108 | -0.138 | -1.75 | -1.49
4 | MAAGPISERNQDATVYVGGLDEKVSEPLLWELFLQAGPVVNTHMPKDRVTGQHQGYGFVEFLSEEDADYAIKIMNMIKLYGKPIRVNKASAHNKNLDVGANIFIGNLDPEIDEKLLYDTFSAFGVILQTPKIMRDPDTGNSKGYAFINFASFDASDAAIEAMNGQYLCNRPITVSYAFKKDSKGERHGSAAERLLAAQNPLSQADRPHQLFADAPPPPSAPNPVVSSLGSGLPPPGMPPPGSFPPPVPPPGALPPGIPPAMPPPPMPPGAAGHGPPSAGTPGAGHPGHGHSHPHPFPPGGMPHPGMSQMQLAHHGPHGLGHPHAGPPGSGGQPPPRPPPGMPHPGPPPMGMPPRGPPFGSPMGHPGPMPPHGMRGPPPLMPPHGYTGPPRPPPYGYQRGPLPPPRPTPRPPVPPRGPLRGPLPQ [SF3B4] | 50.9 | 51.3 | 0.275 | 0.162 | -2.15 | -2.49
5 | MAAGVEAAAEVAATEIKMEEESGAPGVPSGNGAPGPKGEGERPAQNEKRKEKNIKRGGNRFEPYANPTKRYRAFITNIPFDVKWQSLKDLVKEKVGEVTYVELLMDAEGKSRGCAVVEFKMEESMKKAAEVLNKHSLSGRPLKVKEDPDGEHARRAMQKVMATTGGMGMGPGGPGMITIPPSILNNPNIPNEIIHALQAGRLGSTVFVANLDYKVGWKKLKEVFSMAGVVVRADILEDKDGKSRGIGTVTFEQSIEAVQAISMFNGQLLFDRPMHVKMDERALPKGDFFPPERPQQLPHGLGGIGMGLGPGGQPIDANHLNKGIGMGNIGPAGMGMEGIGFGINKMGGMEGPFGGGMENMGRFGSGMNMGRINEILSNALKRGEIIAKQGGGGGGGSVPGIERMGPGIDRLGGAGMERMGAGLGHGMDRVGSEIERMGLVMDRMGSVERMGSGIERMGPLGLDHMASSIERMGQTMERIGSGVERMGAGMGFGLERMAAPIDRVGQTIERMGSGVERMGPAIERMGLSMERMVPAGMGAGLERMGPVMDRMATGLERMGANNLERMGLERMGANSLERMGLERMGANSLERMGPAMGPALGAGIERMGLAMGGGGGASFDRAIEMERGNFGGSFAGSFGGAGGHAPGVARKACQIFVRNLPFDFTWKMLKDKFNECGHVLYADIKMENGKSKGCGVVKFESPEVAERACRMMNGMKLSGREIDVRIDRNA [HNRNPM] | 46.7 | 47.3 | -0.172 | 0.236 | 6.88 | 13.2
6 | MAAHLVKRCTCLLREAARQAPAMAPVGRLRLAWVAHKTLTSSATSPISHLPGSLMEPVEKERASTPYIEKQVDHLIKKATRPEELLELLGGSHDLDSNQAAMVLIRLSHLLSEKPEDKGLLIQDAHFHQLLCLLNSQIASVWHGTLSKLLGSLYALGIPKASKELQSVEQEVRWRMRKLKYKHLAFLAESCATLSQEQHSQELLAELLTHLERRWTEIEDSHTLVTVMMKVGHLSEPLMNRLEDKCLELVEHFGPNELRKVLVMLAAQSRRSVPLLRAISYHLVQKPFSLTKDVLLDVAYAYGKLSFHQTQVSQRLATDLLSLMPSLTSGEVAHCAKSFALLKWLSLPLFEAFAQHVLNRAQDITLPHLCSVLLAFARLNFHPDQEDQFFSLVHEKLGSELPGLEPALQVDLVWALCVLQQAREAELQAVLHPEFHIQFLGGKSQKDQNTFQKLLHINATALLEYPEYSGPLLPASAVAPGPSALDRKVTPLQKELQETLKGLLGSADKGSLEVATQYGWVLDAEVLLDSDGEFLPVRDFVAPHLAQPTGSQSPPPGSKRLAFLRWEFPNFNSRSKDLLGRFVLARRHIVAAGFLIVDVPFYEWLELKSEWQKGAYLKDKMRKAVAEELAK [TBRG4] | 48.4 | 48.2 | 0.123 | -0.127 | 0.141 | 3.9
7 | MAAIGVHLGCTSACVAVYKDGRAGVVANDAGDRVTPAVVAYSENEEIVGLAAKQSRIRNISNTVMKVKQILGRSSSDPQAQKYIAESKCLVIEKNGKLRYEIDTGEETKFVNPEDVARLIFSKMKETAHSVLGSDANDVVITVPFDFGEKQKNALGEAARAAGFNVLRLIHEPSAALLAYGIGQDSPTGKSNILVFKLGGTSLSLSVMEVNSGIYRVLSTNTDDNIGGAHFTETLAQYLASEFQRSFKHDVRGNARAMMKLTNSAEVAKHSLSTLGSANCFLDSLYEGQDFDCNVSRARFELLCSPLFNKCIEAIRGLLDQNGFTADDINKVVLCGGSSRIPKLQQLIKDLFPAVELLNSIPPDEVIPIGAAIEAGILIGKENLLVEDSLMIECSARDILVKGVDESGASRFTVLFPSGTPLPARRQHTLQAPGSISSVCLELYESDGKNSAKEETKFAQVVLQDLDKKENGLRDILAVLTMKRDGSLHVTCTDQETGKCEAISIEIAS [HSPA14] | 48.4 | 48.4 | 0.167 | -0.0832 | 1.14 | 3.27
8 | MAALAPVGSPASRGPRLAAGLRLLPMLGLLQLLAEPGLGRVHHLALKDDVRHKVHLNTFGFFKDGYMVVNVSSLSLNEPEDKDVTIGFSLDRTKNDGFSSYLDEDVNYCILKKQSVSVTLLILDISRSEVRVKSPPEAGTQLPKIIFSRDEKVLGQSQEPNVNPASAGNQTQKTQDGGKSKRSTVDSKAMGEKSFSVHNNGGAVSFQFFFNISTDDQEGLYSLYFHKCLGKELPSDKFTFSLDIEITEKNPDSYLSAGEIPLPKLYISMAFFFFLSGTIWIHILRKRRNDVFKIHWLMAALPFTKSLSLVFHAIDYHYISSQGFPIEGWAVVYYITHLLKGALLFITIALIGTGWAFIKHILSDKDKKIFMIVIPLQVLANVAYIIIESTEEGTTEYGLWKDSLFLVDLLCCGAILFPVVWSIRHLQEASATDGKGDSMGPLQQRANLRAGSRIESHHFAQADLELLASSCPPASVSQRAGITAAINLAKLKLFRHYYVLIVCYIYFTRIIAFLLKLAVPFQWKWLYQLLDETATLVFFVLTGYKFRPASDNPYLQLSQEEEDLEMESVVTTSGVMESMKKVKKVTNGSVEPQGEWEGAV [GPR107] |  | 53.4 | -0.0201 | -0.385 | 0.348 | -0.468
9 | MAALKSWLSRSVTSFFRYRQCLCVPVVANFKKRCFSELIRPWHKTVTIGFGVTLCAVPIAQKSEPHSLSSEALMRRAVSLVTDSTSTFLSQTTYALIEAITEYTKAVYTLTSLYRQYTSLLGKMNSEEEDEVWQVIIGARAEMTSKHQEYLKLETTWMTAVGLSEMAAEAAYQTGADQASITARNHIQLVKLQVEEVHQLSRKAETKLAEAQIEELRQKTQEEGEERAESEQEAYLRED [DIABLO] | 54.9 | 53.3 | -0.173 | 0.345 | -0.685 | -1.02
10 | MAALVRPARFVVRPLLQVVQAWDLDARRWVRALRRSPVKVVFPSGEVVEQKRAPGKQPRKAPSEASAQEQREKQPLEESASRAPSTWEESGLRYDKAYPGDRRLSSVMTIVKSRPFREKQGKILLEGRRLISDALKAGAVPKMFFFSRLEYLKELPVDKLKGVSLIKVKFEDIKDWSDLVTPQGIMGIFAKPDHVKMTYPKTQLQHSLPLLLICDNLRDPGNLGTILRSAAGAGCSKVLLTKGCVDAWEPKVLRAGMGAHFRMPIINNLEWETVPNYLPPDTRVYVADNCGLYAQAEMSNKASDHGWVCDQRVMKFHKYEEEEDVETGASQDWLPHVEVQSYDSDWTEAPAAVVIGGETYGVSLESLQLAESTGGKRLLIPVVPGVDSLNSAMAASILLFEGKRQLRGRAEDLSRDRSYH [RNMTL1] | 53.2 | 52.1 | -0.452 | 0.163 | -0.281 | -1.34
11 | MAAMRKALPRRLVGLASLRAVSTSSMGTLPKRVKIVEVGPRDGLQNEKNIVSTPVKIKLIDMLSEAGLSVIETTSFVSPKWVPQMGDHTEVLKGIQKFPGINYPVLTPNLKGFEAAVAAGAKEVVIFGAASELFTKKNINCSIEESFQRFDAILKAAQSANISVRGYVSCALGCPYEGKISPAKVAEVTKKFYSMGCYEISLGDTIGVGTPGIMKDMLSAVMQEVPLAALAVHCHDTYGQALANTLMALQMGVSVVDSSVAGLGGCPYAQGASGNLATEDLVYMLEGLGIHTGVNLQKLLEAGNFICQALNRKTSSKVAQATCKL [HMGCL] | 54.1 | 53.9 | 0.536 | -0.047 | 0.275 | 0.372
12 | MAANKSKGQSSLALHKVIMVGSGGVGKSALTLQFMYDEFVEDYEPTKADSYRKKVVLDGEEVQIDILDTAGQEDYAAIRDNYFRSGEGFLLVFSITEHESFTATAEFREQILRVKAEEDKIPLLVVGNKSDLEERRQVPVEEARSKAEEWGVQYVETSAKTRANVDKVFFDLMREIRTKKMSENKDKNGKKSSKNKKSFKERCCLL [RALB] | 57 | 57.7 | 0.046 | 0.0599 | -0.446 | -2.23
